From the supplement of paper PMC11316812
± gives the standard deviation of the averaged measurements.

Experiments:
hTERT-HMEC = test: percentage of EdU-negative (G0-arrested) nuclei per well, 72 h; higher = more G0 arrest; details: reference: sequence is the full UniProt precursor, the tested protein was the secreted form or ectodomain
MCF7 = test: as above; details: reference: sequence is the full UniProt precursor, the tested protein was the secreted form or ectodomain
[1] = protein concentration 0.0231125 µM
[2] = protein concentration 0.231125 µM
[3] = protein concentration 0.0225 µM
[4] = protein concentration 0.03125 µM
[5] = protein concentration 0.3125 µM
[6] = protein concentration 0.00625 µM
[7] = protein concentration 0.0625 µM
[8] = protein concentration 0.0125 µM
[9] = protein concentration 0.0075 µM
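Note: secreted proteins added to cultured cells, EdU pulse at the end, nuclei found by Hoechst imaging, EdU status from nuclear versus surrounding ring intensity ratio, PBS as neutral control.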

Sequence: MALLFSLILAICTRPGFLASPSGVRLVGGLHRCEGRVEVEQKGQWGTVCDDGWDIKDVAVLCRELGCGAASGTPSGILYEPPAEKEQKVLIQSVSCTGTEDTLAQCEQEEVYDCSHDEDAGASCENPESSFSPVPEGVRLADGPGHCKGRVEVKHQNQWYTVCQTGWSLRAAKVVCRQLGCGRAVLTQKRCNKHAYGRKPIWLSQMSCSGREATLQDCPSGPWGKNTCNHDEDTWVECEDPFDLRLVGGDNLCSGRLEVLHKGVWGSVCDDNWGEKEDQVVCKQLGCGKSLSPSFRDRKCYGPGVGRIWLDNVRCSGEEQSLEQCQHRFWGFHDCTHQEDVAVICSG
- percentage of EdU-negative (hTERT-HMEC; [1]): 5.21 ± 0.98%
- percentage of EdU-negative (hTERT-HMEC; [2]): 5.51 ± 0.056%
- percentage of EdU-negative (MCF7; [1]): 24.9 ± 0.77%
- percentage of EdU-negative (MCF7; [2]): 27.1 ± 0.67%

Sequence: MSPSPTALFCLGLCLGRVPAQSGPLPKPSLQALPSSLVPLEKPVTLRCQGPPGVDLYRLEKLSSSRYQDQAVLFIPAMKRSLAGRYRCSYQNGSLWSLPSDQLELVATGVFAKPSLSAQPGPAVSSGGDVTLQCQTRYGFDQFALYKEGDPAPYKNPERWYRASFPIITVTAAHSGTYRCYSFSSRDPYLWSAPSDPLELVVTGTSVTPSRLPTEPPSPVAEFSEATAELTVSFTNEVFTTETSRSITASPKESDSPAGPARQYYTKGNLVRICLGAVILIILAGFLAEDWHSRRKRLRHRGRAVQRPLPPLPPLPLTRKSNGGQDGGRQDVHSRGLCS [Q9HCN6]
- percentage of EdU-negative (hTERT-HMEC; [3]): 4.56 ± 0.87%
- percentage of EdU-negative (hTERT-HMEC; protein concentration 0.225 µM): 5.35 ± 0.6%
- percentage of EdU-negative (MCF7; [3]): 24.78 ± 0.15%
- percentage of EdU-negative (MCF7; protein concentration 0.225 µM): 24.9 ± 1.1%

Sequence: MAAPSGGWNGVGASLWAALLLGAVALRPAEAVSEPTTVAFDVRPGGVVHSFSHNVGPGDKYTCMFTYASQGGTNEQWQMSLGTSEDHQHFTCTIWRPQGKSYLYFTQFKAEVRGAEIEYAMAYSKAAFERESDVPLKTEEFEVTKTAVAHRPGAFKAELSKLVIVAKASRTEL [Q969H8]
- percentage of EdU-negative (hTERT-HMEC; [4]): 4.64 ± 1%
- percentage of EdU-negative (hTERT-HMEC; [5]): 5.57 ± 0.44%
- percentage of EdU-negative (MCF7; [4]): 25.7 ± 1.8%
- percentage of EdU-negative (MCF7; [5]): 24.42 ± 0.17%

Sequence: MRLSPAPLKLSRTPALLALALPLAAALAFSDETLDKVPKSEGYCSRILRAQGTRREGYTEFSLRVEGDPDFYKPGTSYRVTLSAAPPSYFRGFTLIALRENREGDKEEDHAGTFQIIDEEETQFMSNCPVAVTESTPRRRTRIQVFWIAPPAGTGCVILKASIVQKRIIYFQDEGSLTKKLCEQDSTFDGVTDKPILDCCACGTAKYRLTFYGNWSEKTHPKDYPRRANHWSAIIGGSHSKNYVLWEYGGYASEGVKQVAELGSPVKMEEEIRQQSDEVLTVIKAKAQWPAWQPLNVRAAPSAEFSVDRTRHLMSFLTMMGPSPDWNVGLSAEDLCTKECGWVQKVVQDLIPWDAGTDSGVTYESPNKPTIPQEKIRPLTSLDHPQSPFYDPEGGSITQVARVVIERIARKGEQCNIVPDNVDDIVADLAPEEKDEDDTPETCIYSNWSPWSACSSSTCDKGKRMRQRMLKAQLDLSVPCPDTQDFQPCMGPGCSDEDGSTCTMSEWITWSPCSISCGMGMRSRERYVKQFPEDGSVCTLPTEETEKCTVNEECSPSSCLMTEWGEWDECSATCGMGMKKRHRMIKMNPADGSMCKAETSQAEKCMMPECHTIPCLLSPWSEWSDCSVTCGKGMRTRQRMLKSLAELGDCNEDLEQVEKCMLPECPIDCELTEWSQWSECNKSCGKGHVIRTRMIQMEPQFGGAPCPETVQRKKCRIRKCLRNPSIQKLRWREARESRRSEQLKEESEGEQFPGCRMRPWTAWSECTKLCGGGIQERYMTVKKRFKSSQFTSCKDKKEIRACNVHPC [Q9HCB6]
- percentage of EdU-negative (hTERT-HMEC; [6]): 4.65 ± 0.17%
- percentage of EdU-negative (hTERT-HMEC; [7]): 6.96 ± 0.65%
- percentage of EdU-negative (MCF7; [6]): 24.6 ± 2.6%
- percentage of EdU-negative (MCF7; [7]): 24.8 ± 1.8%

Sequence: MVAPGLVLGLVLPLILWADRSAGIGFRFASYINNDMVLQKEPAGAVIWGFGTPGATVTVTLRQGQETIMKKVTSVKAHSDTWMVVLDPMKPGGPFEVMAQQTLEKINFTLRVHDVLFGDVWLCSGQSNMQMTVLQIFNATRELSNTAAYQSVRILSVSPIQAEQELEDLVAVDLQWSKPTSENLGHGYFKYMSAVCWLFGRHLYDTLQYPIGLIASSWGGTPIEAWSSGRSLKACGVPKQGSIPYDSVTGPSKHSVLWNAMIHPLCNMTLKGVVWYQGESNINYNTDLYNCTFPALIEDWRETFHRGSQGQTERFFPFGLVQLSSDLSKKSSDDGFPQIRWHQTADFGYVPNPKMPNTFMAVAMDLCDRDSPFGSIHPRDKQTVAYRLHLGARALAYGEKNLTFEGPLPEKIELLAHKGLLNLTYYQQIQVQKKDNKIFEISCCSDHRCKWLPASMNTVSTQSLTLAIDSCHGTVVALRYAWTTWPCEYKQCPLYHPSSALPAPPFIAFITDQGPGHQSNVAK [Q9HAT2]
- percentage of EdU-negative (hTERT-HMEC; [3]): 5.13 ± 1%
- percentage of EdU-negative (hTERT-HMEC; protein concentration 0.225 µM): 7.82 ± 1.7%
- percentage of EdU-negative (MCF7; [3]): 24.9 ± 0.68%
- percentage of EdU-negative (MCF7; protein concentration 0.225 µM): 24.8 ± 0.63%

Sequence: MPRSCCSRSGALLLALLLQASMEVRGWCLESSQCQDLTTESNLLECIRACKPDLSAETPMFPGNGDEQPLTENPRKYVMGHFRWDRFGRRNSSSSGSSGAGQKREDVSAGEDCGPLPEGGPEPRSDGAKPGPREGKRSYSMEHFRWGKPVGKKRRPVKVYPNGAEDESAEAFPLEFKRELTGQRLREGDGPDGPADDGAGAQADLEHSLLVAAEKKDEGPYRMEHFRWGSPPKDKRYGGFMTSEKSQTPLVTLFKNAIIKNAYKKGE
- percentage of EdU-negative (hTERT-HMEC; [8]): 4.65 ± 0.64%
- percentage of EdU-negative (hTERT-HMEC; protein concentration 0.125 µM): 8.66 ± 0.81%
- percentage of EdU-negative (MCF7; [8]): 24.3 ± 6.1%
- percentage of EdU-negative (MCF7; protein concentration 0.125 µM): 24.787 ± 0.0019%

Sequence: MLPRVGCPALPLPPPPLLPLLLLLLGASGGGGGARAEVLFRCPPCTPERLAACGPPPVAPPAAVAAVAGGARMPCAELVREPGCGCCSVCARLEGEACGVYTPRCGQGLRCYPHPGSELPLQALVMGEGTCEKRRDAEYGASPEQVADNGDDHSEGGLVENHVDSTMNMLGGGGSAGRKPLKSGMKELAVFREKVTEQHRQMGKGGKHHLGLEEPKKLRPPPARTPCQQELDQVLERISTMRLPDERGPLEHLYSLHIPNCDKHGLYNLKQCKMSLNGQRGECWCVNPNTGKLIQGAPTIRGDPECHLFYNEQQEARGVHTQRMQ
- percentage of EdU-negative (hTERT-HMEC; [4]): 4.88 ± 1%
- percentage of EdU-negative (hTERT-HMEC; [5]): 6.96 ± 0.2%
- percentage of EdU-negative (MCF7; [4]): 27.7 ± 2.4%
- percentage of EdU-negative (MCF7; [5]): 31.1 ± 3.1%

Sequence: MCGSALAFFTAAFVCLQNDRRGPASFLWAAWVFSLVLGLGQGEDNRCASSNAASCARCLALGPECGWCVQEDFISGGSRSERCDIVSNLISKGCSVDSIEYPSVHVIIPTENEINTQVTPGEVSIQLRPGAEANFMLKVHPLKKYPVDLYYLVDVSASMHNNIEKLNSVGNDLSRKMAFFSRDFRLGFGSYVDKTVSPYISIHPERIHNQCSDYNLDCMPPHGYIHVLSLTENITEFEKAVHRQKISGNIDTPEGGFDAMLQAAVCESHIGWRKEAKRLLLVMTDQTSHLALDSKLAGIVVPNDGNCHLKNNVYVKSTTMEHPSLGQLSEKLIDNNINVIFAVQGKQFHWYKDLLPLLPGTIAGEIESKAANLNNLVVEAYQKLISEVKVQVENQVQGIYFNITAICPDGSRKPGMEGCRNVTSNDEVLFNVTVTMKKCDVTGGKNYAIIKPIGFNETAKIHIHRNCSCQCEDNRGPKGKCVDETFLDSKCFQCDENKCHFDEDQFSSESCKSHKDQPVCSGRGVCVCGKCSCHKIKLGKVYGKYCEKDDFSCPYHHGNLCAGHGECEAGRCQCFSGWEGDRCQCPSAAAQHCVNSKGQVCSGRGTCVCGRCECTDPRSIGRFCEHCPTCYTACKENWNCMQCLHPHNLSQAILDQCKTSCALMEQQHYVDQTSECFSSPSYLRIFFIIFIVTFLIGLLKVLIIRQVILQWNSNKIKSSSDYRVSASKKDKLILQSVCTRAVTYRREKPEEIKMDISKLNAHETFRCNF
- percentage of EdU-negative (hTERT-HMEC; [9]): 4.94 ± 0.66%
- percentage of EdU-negative (hTERT-HMEC; protein concentration 0.075 µM): 6.65 ± 1.7%
- percentage of EdU-negative (MCF7; [9]): 28.2 ± 3%
- percentage of EdU-negative (MCF7; protein concentration 0.075 µM): 28.3 ± 2.1%
